Assay results published in US20230277625A1 (SIMCHA IL 18, published 2023).

B1: Human IL-18BP (amino acids 31-194), biotinylated (receptor)
chain: TPVSQTTTAATASVRSTKDPCPSQPPVFPAAKQCPALEVTWPEVEVPLNGTLSLSCVACSRFPNFSILYWLGNGSFIEHLPGRLWEGSTSRERGSTGTQLCKALVLEQLTPALHSTNFSCVLVDPEQVVQRHVVLAQLWAGLRATLPPTQEALPSSHSSPQQQGGLNDIFEAQKIEWHEHHHHHH
modifications: biotin on the AviTag (BirA ligase) where used biotinylated
notes: Soluble decoy receptor; also called hIL-18BP; recombinant IL-18BP

Key:
[1] = molecular target: T1, Human Interleukin-18 (mature form), wild type (human, UniProt Q14116 37-193); experiment: competition on yeast (flow cytometry): hIL-18BP titrated against a fixed 100 nM biotinylated hIL-18Rα on yeast-displayed IL-18
T1 construct: also called hIL-18 WT; WT hIL-18
T1 sequence: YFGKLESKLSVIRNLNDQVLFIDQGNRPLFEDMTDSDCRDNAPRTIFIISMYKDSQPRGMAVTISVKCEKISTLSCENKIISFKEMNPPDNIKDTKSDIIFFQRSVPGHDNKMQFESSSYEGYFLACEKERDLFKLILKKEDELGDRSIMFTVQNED
Protocol: By contrast, IL-18BP effectively neutralizes the IL-18 E42A, K89A and E42A/K89A previously described (Kim et al., 2001, Proc. Natl. Acad. Sci., 98(6):3304-3309) (shown in chart on right) [E42 and K89 of Kim et al. are E6 and K53 of SEQ ID NO: 30, respectively]. Biotinylated IL-18Rα was kept at a fixed concentration of 100 nM for all samples.
(§1) Individual colonies of IL-18 yeast were grown overnight at 30° C. in SDCAA liquid media and induced in SGCAA liquid media for 1 day at 20° C. IL-18 display levels on yeast were verified by flow cytometry using an anti-cMyc tag antibody (anti-myc-PE; Cell Signaling Technologies). Receptor staining with biotinylated IL-18Rα (with or without IL-18R β) or biotinylated IL-18BP was performed in PBS supplemented with 0.5% BSA and 2 mM EDTA (PBE) on ice. All analysis was performed on a Sony SA3800 flow cytometer.

[2] = molecular target: T1, Human Interleukin-18 (mature form), …; experiment: cell-based or functional assay
[3] = molecular target: T2, Human IL-18Rα ectodomain (amino acids 19-329), biotinylated (human, UniProt Q13478 19-329, biotin on the AviTag (BirA ligase)); experiment: SPR single-cycle kinetics, biotinylated hIL-18Rα on a streptavidin capture chip, IL-18 variant as analyte
T2 construct: range 19-329; Secreted from insect cells (gp67 signal peptide removed); also called hIL-18Rα; hIL18Rα
T2 sequence: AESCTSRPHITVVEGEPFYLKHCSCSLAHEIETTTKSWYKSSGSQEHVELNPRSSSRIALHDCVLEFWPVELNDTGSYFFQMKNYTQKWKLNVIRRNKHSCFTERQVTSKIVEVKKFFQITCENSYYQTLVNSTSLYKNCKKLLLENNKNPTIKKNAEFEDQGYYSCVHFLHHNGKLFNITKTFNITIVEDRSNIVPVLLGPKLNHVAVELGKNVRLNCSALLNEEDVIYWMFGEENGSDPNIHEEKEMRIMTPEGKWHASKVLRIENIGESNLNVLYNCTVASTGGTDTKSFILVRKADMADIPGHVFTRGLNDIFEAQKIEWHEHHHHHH
Protocol: (§2) IL-18 receptor affinity. The affinities of human IL-18 and SEQ ID NO: 19 were determined for both human and cynomolgus monkey IL-18Rα and IL-18BP using surface plasmon resonance. Biotinylated receptor proteins were immobilized on a streptavidin capture chip and IL-18 or SEQ ID NO: 19 were applied as the free analyte. […] were used to determine binding. WT hIL-18 and SEQ ID NO: 19 had similar binding affinity for IL-18Rα in this assay (FIG. 37A).

[4] = molecular target: T3, IL-18 receptor (IL-18Rα / IL-18Rβ heterodimer) on HEK-Blue IL-18 reporter cells (UniProt Q13478 19-541; O95256 20-599, limits assumed); experiment: cell-based or functional assay
T3 sequence (looked up) 1: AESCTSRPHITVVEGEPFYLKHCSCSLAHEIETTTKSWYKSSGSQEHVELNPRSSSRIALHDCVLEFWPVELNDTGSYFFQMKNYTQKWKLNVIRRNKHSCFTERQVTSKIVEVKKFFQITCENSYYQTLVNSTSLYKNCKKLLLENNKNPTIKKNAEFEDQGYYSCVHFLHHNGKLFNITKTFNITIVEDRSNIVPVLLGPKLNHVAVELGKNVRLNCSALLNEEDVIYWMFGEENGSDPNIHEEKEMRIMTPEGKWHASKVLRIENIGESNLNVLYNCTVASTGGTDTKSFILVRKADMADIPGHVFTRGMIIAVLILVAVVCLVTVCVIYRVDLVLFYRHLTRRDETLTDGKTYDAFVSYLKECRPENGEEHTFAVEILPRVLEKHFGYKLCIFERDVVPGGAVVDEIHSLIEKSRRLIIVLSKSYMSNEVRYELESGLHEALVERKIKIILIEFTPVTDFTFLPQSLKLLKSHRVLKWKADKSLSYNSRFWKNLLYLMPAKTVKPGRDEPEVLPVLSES
T3 sequence (looked up) 2: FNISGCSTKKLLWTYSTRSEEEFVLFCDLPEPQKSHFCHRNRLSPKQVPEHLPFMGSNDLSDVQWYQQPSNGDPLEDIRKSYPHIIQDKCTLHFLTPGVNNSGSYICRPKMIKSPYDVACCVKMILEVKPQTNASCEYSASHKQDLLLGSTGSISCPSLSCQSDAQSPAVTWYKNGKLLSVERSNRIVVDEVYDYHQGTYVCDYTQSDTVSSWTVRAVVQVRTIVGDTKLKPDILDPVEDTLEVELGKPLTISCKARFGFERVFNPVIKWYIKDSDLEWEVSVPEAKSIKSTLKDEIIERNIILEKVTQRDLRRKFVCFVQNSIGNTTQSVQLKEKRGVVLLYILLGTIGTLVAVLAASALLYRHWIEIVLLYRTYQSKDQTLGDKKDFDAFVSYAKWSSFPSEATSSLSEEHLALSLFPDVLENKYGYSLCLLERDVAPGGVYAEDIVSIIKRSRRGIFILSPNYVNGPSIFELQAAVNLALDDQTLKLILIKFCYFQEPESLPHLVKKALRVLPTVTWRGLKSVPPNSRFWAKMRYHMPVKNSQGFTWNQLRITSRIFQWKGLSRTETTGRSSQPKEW

[5] = molecular target: T4, Cynomolgus monkey IL-18Rα, biotinylated (cynomolgus monkey, UniProt A0A2K5V3J9 19-328, biotinylated); experiment: SPR single-cycle kinetics, biotinylated cynomolgus IL-18Rα on a streptavidin capture chip, IL-18 variant as analyte
T4 sequence: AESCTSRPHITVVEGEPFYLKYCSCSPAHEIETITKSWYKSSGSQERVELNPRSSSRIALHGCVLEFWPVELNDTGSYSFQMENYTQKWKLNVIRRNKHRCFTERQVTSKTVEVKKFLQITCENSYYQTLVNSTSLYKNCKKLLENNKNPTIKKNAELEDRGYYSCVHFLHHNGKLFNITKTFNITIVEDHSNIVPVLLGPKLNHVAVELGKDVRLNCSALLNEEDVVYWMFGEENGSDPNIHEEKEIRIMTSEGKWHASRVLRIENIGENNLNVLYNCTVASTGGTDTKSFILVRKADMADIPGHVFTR
Protocol: as §2

[6] = molecular target: B1; experiment: on-yeast binding isotherm (flow cytometry), drawn summary table, column IL18BP (KD); IL18Rα column reads N.D.
[7] = molecular target: B1; experiment: on-yeast binding isotherm (flow cytometry)
[8] = molecular target: B1; experiment: SPR; KD ratio relative to WT IL-18
Protocol: (§3) Experiments were conducted using a Biacore T100 and carried out at 25° C. Biotinylated IL-18Rα or IL-18BP were immobilized onto a Biacore biotin capture chip (Series S CAP sensor chip, GE Healthcare) to yield an Rmax of ˜50 RU (IL-18Rα) or ˜10 RU (IL-18BP). Measurements were made with serial dilutions of the IL-18 variants in HEPES buffered Saline-P+buffer (10 mM HEPES pH 7.4, 150 mM NaCl, 0.005% surfactant P20). The surface was regenerated by three 60-sec injections of regeneration buffer (3/4 (v/v) 8M guanidine hydrochloride with 1/4 (v/v) 1M sodium hydroxide). Experiments were performed in multiple channels simultaneously for increased observations. All data were analyzed with the Biacore T100 evaluation software version 2.0 with a 1:1 Langmuir binding model.
(§4) To additionally characterize the receptor binding activities of the DR-IL-18 variants, the cytokines were expressed recombinantly and surface plasmon resonance for IL-18Rα and IL-18BP was performed (see FIG. 5B for representative traces).

[9] = molecular target: B1; experiment: SPR; KD(IL-18BP)/KD(IL-18Rα) normalized to WT IL-18
[10] = molecular target: T2, Human IL-18Rα ectodomain (amino acids …); experiment: SPR (Biacore T100), receptor captured via biotin, IL-18 as analyte
Protocol: as §3, §4

[11] = molecular target: B1; experiment: on-yeast binding isotherm (flow cytometry); members per FIG. 5A legend
Protocol: as §1, §4

[12] = molecular target: T2, Human IL-18Rα ectodomain (amino acids …); experiment: SPR; average of 2 studies
[13] = molecular target: B1; experiment: SPR; average of 2 studies
[14] = molecular target: B1; experiment: on-yeast binding isotherms; KD for IL-18BP over KD for IL-18Rα
[15] = molecular target: B1; experiment: on-yeast binding isotherms; KD ratio relative to WT IL-18
[16] = molecular target: B1; experiment: SPR; KD for IL-18BP over KD for IL-18Rα
Protocol: as §3, §4

[17] = molecular target: B1; experiment: SPR (Biacore T100), IL-18BP captured via biotin, IL-18 as analyte
Protocol: as §3, §4

## B1
[1]
  IC50 (read off the curve): ~20 nM
[2]
  IC50 of recombinant IL-18BP in the HEK Blue IL-18 signaling assay (hIL-18 fixed at 5 nM): 3 nM

B2: SEQ ID NO: 19 (stabilized human DR-IL-18; SEQ ID NO: 89 plus C38S/C68D) (ligand)
chain: YFGKLESKLSVIRNLNDQVLFIDQGNRPLFEDMTDSDSRDNAPRTIFIISKYSDSLARGLAVTISVKDEKISTLSCENKIISFKEMNPPDNIKDTKSDIIFFQRDVPGHSRKMQFESSSYEGYFLACEKERDLFKLILKKEDELGDRSIMFTVQNED
[3]
  Kd: 18.8 nM
[4]
  EC50-#1 (M), HEK-Blue reporter: 1.24e-10 M
  EC50-#2 (M), HEK-Blue reporter: 7.9e-11 M
[5]
  Kd: 10.9 nM

B3: SEQ ID NO: 88 (second generation human DR-IL-18 variant 6-20) (ligand)
chain: YFGKLESKLSVIRNLNDQVLFIDQGNRPLFEDMTDSDCRDNAPRTIFIISKYGDSRPRGMAVTISVKCEKISTLSCENKIISFKEMNPPDNIKDTKSDIIFFQRAVPGHNRKMQFESSSYEGYFLACEKERDLFKLILKKEDELGDRSIMFTVQNED
notes: Engineered variant
[6]
  Kd: 340 nM
[7]
  Kd: 340 nM

B4: SEQ ID NO: 36 (human DR-IL-18 variant hCS3) (ligand)
chain: RFGKLESKLSVIRNLNDQVLFIDQGNRPLFEDMTDSDCRDNAPRTIFIISTYKDSQPRGKAVTISVKCEKISTLSCENKIISFKEMNPPDNIKDTKSDIIFFQRDVPGHKHKMQFESSSYEGYFLACEKERDLFKLILKKEDELGDRSIMFTVQNED
notes: Engineered variant
[8]
  Dissociation Constant Ratio normalized to WT IL-18: 3500
[9]
  IL-18 BP:Rα Dissociation Constant Ratio: 4350
[10]
  Kd: 8.18 nM
[11]
  EC50: > 1000 nM
[12]
  Kd: 9.1 nM
[13]
  Kd: 19.3 nM
[14]
  KD ratio IL-18BP/IL-18Rα: 103
[15]
  Dissociation Constant Ratio normalized to WT IL-18: 348
[16]
  KD ratio IL-18BP/IL-18Rα: 2.27
[7]
  Kd: 11600 nM
[17]
  Kd: 18.6 nM
